{
  "source": "the supplement of paper PMC9170038",
  "data": [
    {"test_system": "MS2 coat protein", "assay": "apparent KD of MS2 coat protein, switch OFF state (with FMN for OFF switches, without FMN for ON switches); designed switch direction (-1 OFF switch, 1 ON switch): -1; higher = weaker reporter binding", "settings": "FMN input: 0 or 200 uM; Eterna round: R93 (includes R88 designs)", "method_in_brief": "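Designed RNA switches were transcribed on-chip from Illumina sequencing clusters and titrated with SNAP-549-labelled MS2 coat protein in twofold steps from 0.7 or 1.5 nM up to 3 µM. Each step lasted 0.8–1.5 h at first and 10–20 min by the end, in 100 mM Tris-HCl pH 7.5, 80 mM KCl and 4 mM MgCl2, without or with constant ligand. Apparent KD is the median, for each design, of fits to normalised cluster binding curves.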", "units": {"apparent KD of MS2 coat protein": "nM"}, "values": [
      {"sequence": "GAAAAGUCAGGAUAUAUGCGAAAAAUAAAAAAAAUAAAAACAUAGAAGGGACAUGAGGAUCACCCAUGUUAAAG [Mat - Exclusion 4 - Mayanna - D135]", "apparent KD of MS2 coat protein": 25.4},
      {"sequence": "AAGAAGGUAGGAUAUACUAGGGAAACUAAUGCAAAGAUAAAACAUGAGGAUCACCCAUGUAGAAGGGCCAGAAA [JR_Exc002_Sub017]", "apparent KD of MS2 coat protein": 65.5},
      {"sequence": "AACAGUACAGGAUAUACAUGAGGAUCACCCAUGUGAUUAUCAAGUGCCGUAGCACGAAGUAGAAGGGUACUGGA", "apparent KD of MS2 coat protein": 243},
      {"sequence": "AGCUAGUCAGGAUAUACAUGAAAAAAAAAAAAAAAAAAAAAACAUGAGGAUCACCCAUGUAGAAGGGACUAGCA [Starry Esclusion 2 (jandersonlee round 1 mod)]", "apparent KD of MS2 coat protein": 98.9},
      {"sequence": "AUGAGAGCAGGAUAUGCAGGUGUGCCGGAAGAAAGAAGAAGACAUGAGGAUCACCCAUGUAGAAGGGCUAGCCC [Bibidi]", "apparent KD of MS2 coat protein": 18.5},
      {"sequence": "AUAAAGUCAGGAUAUGUAAGAAUAACGAAAGUUAUAAAGAAACAGAAGGGACAUGAGGAUCACCCAUGUAAAAU [Ex 4 #3]", "apparent KD of MS2 coat protein": 31},
      {"sequence": "AAAGGACGAGGAUAUACAUGAGGAUCACCCAUGUAAAAAACAUAAUAAAAGAAUUUAUGUAGAAGGCGUCCAAA [69%, Moding Meechl, 1]", "apparent KD of MS2 coat protein": 17.1},
      {"sequence": "AACAGUACAGGAUAUACAUGAGGAUCACCCAUGUCACAACAAAGCAGCGUAACACAAAGUAGAAGGGUAAUGGA [Ruby 16]", "apparent KD of MS2 coat protein": 39.5},
      {"sequence": "AGGAAACAUGAGGAUCACCCAUGUAAGGAUAUGUGAAAGAAAAGAAAAGAAAGAAGAAGCAGAAGGUACAAGAA [Anedjib]", "apparent KD of MS2 coat protein": 47.2},
      {"sequence": "AAAAAACAUGAGGAUCACCCAUGUAAGGAUAUGCUGAAAAACACGGAAAAAACGUGCAGCAGAAGGUACAAAAG [Mat - Exclusion 1 - Eli mod - D90]", "apparent KD of MS2 coat protein": 33.9},
      {"sequence": "AAGAAGCAAGGAUAUACAAAAUAAAAGAAAAGAAAGAAAGAACAUGAGGAUCACCCAUGUAGAAGGUGCAAGAA [Djedkheperew]", "apparent KD of MS2 coat protein": 31},
      {"sequence": "CAAAGGUGAGGAUAUACAUAACUAUGACGAAAGUCAUAAAAACAUGAGGAUCACCCAUGUAGAAGGCACCACAA [E2 64% 1]", "apparent KD of MS2 coat protein": 31.3},
      {"sequence": "AAAAAGAGAGGAUAUACAGGAGGACCACCACAAAAAAAAAUACAUGAGGAUCACCCAUGUAGAAGGCUCAAAAA [Default title]", "apparent KD of MS2 coat protein": 66.1},
      {"sequence": "AAAAAGGGAGGAUAUACAUGAGGAUCACCCAUGUAAAAAAAAAAAAAAAAAAGGGAAGGUAGAAGGCCCAAAAA [Excls3-I]", "apparent KD of MS2 coat protein": 21.1},
      {"sequence": "AACUAGCUAGGAUAUACAUGAGGAUCACCCAUGUAAAAAAAAAAAAAAAAAUUUUUAUGUAGAAGGAGCUAGUA [Design 1 - Brourd - Exclusion 3]", "apparent KD of MS2 coat protein": 35.4},
      {"sequence": "AAAAACGUAGGAUAUACAUGAGGAUCACCCAUGUAAAAAAAAAAGGGAGAAAAAAGAAGUAGAAGGACGAAAAA [JR_Exc003_Sub002]", "apparent KD of MS2 coat protein": 27.1},
      {"sequence": "AAACAUGGAGGAUAUACAUGAGGAUCACCCAUGUGUAUGAAAAAAUAUACAAAAGAAUGUAGAAGGCCAUGAAA [Mat - Exclusion 3 - Mayanna mod - D102]", "apparent KD of MS2 coat protein": 47.8},
      {"sequence": "ACCGAUCGAGGAUAUACAUGAGGAUCACCCAUGUAAAGCAGAAGAAAGGCCUCAGGAUGUAGAAGGCGACGCAA [JR_Exc003_Sub405]", "apparent KD of MS2 coat protein": 28.3},
      {"sequence": "GAUCCACAUGAGGAUCACCCAUGUAAGGAUAUUUAAAACCGGAGACAACCCUCCGAAGAAAGAAGGUACAAAAC [Ququraes]", "apparent KD of MS2 coat protein": 12.6},
      {"sequence": "AAAAAACAUGAGGAUCACCCAUGUGAGGAUAUCUAAAACAAAACAAAAACAAAACAAAGGAGAAGGUAUAUGAA [Amethyst 67]", "apparent KD of MS2 coat protein": 29.2},
      {"sequence": "AGAUGACAAGGAUAUACUAGGGAUGCUAGUCGAGAAGAAGAACAUGAGGAUCACCCAUGUAGAAGGUGUAAGAA [JR_Exc002_Sub1703]", "apparent KD of MS2 coat protein": 33.8},
      {"sequence": "AAAAAUCGAGGAUAUACAUGAGGAUCACCCAUGUCAGAAAAUGACUACACAAAAGAAAGUAGAAGGCGAUAAAG [Mat - Exclusion 3 - Mayanna mod - D131]", "apparent KD of MS2 coat protein": 64.1},
      {"sequence": "AAGAAACAUGAGGAUCACCCAUGUCAGGAUAUUGAAGAAAGAAAGAAAGAAAGAAGAACAAGAAGGGACAAAGG [Gaius Vitrasius Pollio]", "apparent KD of MS2 coat protein": 33.3},
      {"sequence": "AAAAAACAUGAGGAUCACCCAUGUGAGGAUAUUGGUAUUCAGGAUAUAAUCUCAAUAGCGAGAAGGCGCAUAAA [Brourd 613 Mod 16 - Jieux - Exclusion 1]", "apparent KD of MS2 coat protein": 18.1},
      {"sequence": "AAAAAUUGAGGAUAUACGUACAUGUCAAAAGACGUGAAGGGACAUGAGGAUCACCCAUGUAGAAGGCGAAAAAA [JL Neck Breaker 12]", "apparent KD of MS2 coat protein": 13.6},
      {"sequence": "AACAUGUUAGGAUAUGAAAGAAAAGAAAAGAAAGAAAAGAAUCAGAAGGAACAUGAGGAUCACCCAUGUAAGAA [EteRNA is fun!]", "apparent KD of MS2 coat protein": 19.8},
      {"sequence": "AAGGGACAUGAGGAUCACCCAUGUCAGGAUAUCGGAAAAGGAAAAAUAAAAAAGAAGACGAGAAGGGACACCAA [Mat - Exclusion 1 - Eli mod - D77]", "apparent KD of MS2 coat protein": 32.4},
      {"sequence": "AAGAAAGGAGGAUAUACAUGAGGAUCACCCAUGUAAAAGAAAGAGGGAAAAGAGAAAAGUAGAAGGCCUAAGAA [Ptolemy IX Soter II]", "apparent KD of MS2 coat protein": 39.1},
      {"sequence": "AAAAAUCUAGGAUAUACAUGAGGAUCACCCAUGUAAGAAAAUGAUUACACAAAAGAAAGUAGAAGGAGAUAAAA [Ex 3 May 19]", "apparent KD of MS2 coat protein": 18.4},
      {"sequence": "GUGUACAGAGGAUAUACAUGAGCUAGGAAACUAGCAAGAUCACAUGAGGAUCACCCAUGUAGAAGGCUGUACAC [Ex2: 734]", "apparent KD of MS2 coat protein": 16.3},
      {"sequence": "AGCUGGAGAGGAUAUACGUAGGAAAAAAAAGUCUGAUCCCUACAUGAGGAUCACCCAUGUAGAAGGCUCUGGCA [Ex2 Design 161: Sub-opt 25]", "apparent KD of MS2 coat protein": 63.6},
      {"sequence": "AUAGUACAUGAGGAUCACCCAUGUCAGGAUAUCGGAUGUGACAUGAAAAAAAUGUUAGUGAGAAGGGACUAUAA [EX1 Malc#18 Mod 3 - Jieux - Exclusion 1]", "apparent KD of MS2 coat protein": 111},
      {"sequence": "AAAUAGCAAGGAUAUACAUGAGGAUCACCCAUGUGAACAAGGUAUGGAAUAGAAUAGAGUAGAAGGUGCAAAUA [Mod 2 of Ex 3 Tesla 8 - Jieux - Exclusion 3]", "apparent KD of MS2 coat protein": 43.4},
      {"sequence": "UUUAUGUGAGGAUAUCAGUAGUAAAAAAAUAAAAUUACUACUGAGAAGGCACAUGAGGAUCACCCAUGUGAAAA [EX4 340: Super Stable 40]", "apparent KD of MS2 coat protein": 161},
      {"sequence": "AACAAACAUGAGGAUCACCCAUGUCAGGAUAUGCACAAACAAACAAACAAACAAGCAAGCAGAAGGGACACAAC [Amethyst 89]", "apparent KD of MS2 coat protein": 27.6},
      {"sequence": "CAAAGUGGAGGAUAUACAUGAGGAUCACCCAUGUAAGGACAAUAAAUAAGAAGAAGAAGUAGAAGGCCACUCAA [e3-2]", "apparent KD of MS2 coat protein": 40.2},
      {"sequence": "AACGCACAUGAGGAUCACCCAUGUCAGGAUAUCGUGGCGGGAAAAACCGGGAAACGCACGAGAAGGGACAAAAA [EX1 Malc#18 Mod 14 - Jieux - Exclusion 1]", "apparent KD of MS2 coat protein": 42.2},
      {"sequence": "AAGAAACAUGAGGAUCACCCAUGUCAGGAUAUGCAAGACUGACGAAAGUCAGUCAAAAGCAGAAGGGACUAGAA [7-pair stack]", "apparent KD of MS2 coat protein": 51.5},
      {"sequence": "AGGGAGUGAGGAUAUACGAAAAAAAAACAACGAAAAAAAGAGUAGAAGGCACAUGAGGAUCACCCAUGUAAGAA [milkweed 14]", "apparent KD of MS2 coat protein": 25.3},
      {"sequence": "AACACACAUGAGGAUCACCCAUGUAAGGAUAUGCGAGCAAGAAGAAAGAACAGAAAAAGCAGAAGGUACACACA [Amethyst 75]", "apparent KD of MS2 coat protein": 29.5},
      {"sequence": "AAUAAGAGAGGAUAUACUAAAGAAAUGAAAAGAAAUAAAGAACAUGAGGAUCACCCAUGUAGAAGGCUCAAUAA [Bebnum]", "apparent KD of MS2 coat protein": 24.6},
      {"sequence": "GGAAAACAUGAGGAUCACCCAUGUGAGGAUAUCGAUGUCCAAUAAAAAGUGCGGGACUCGAGAAGGCACUUGGA [salish99-ex1-41]", "apparent KD of MS2 coat protein": 29.2},
      {"sequence": "AAAAAGUGAGGAUAUGCGAAGGCGUCUGAUAGACGAGGCUAGCAGAAGGCACAUGAGGAUCACCCAUGUGGGAA [Mat - Mod of Nando 64% 3]", "apparent KD of MS2 coat protein": 98.5},
      {"sequence": "AAAACGGCAGGAUAUACGAUUGGGAACUAGACCGAGGAACCACAUGAGGAUCACCCAUGUAGAAGGGCCAAAAA [Ex2 Malc#15]", "apparent KD of MS2 coat protein": 96.1},
      {"sequence": "AAAAAGGAAGGAUAUACGAACAUGUCAAAAGACGUGAAGGGACAUGAGGAUCACCCAUGUAGAAGGUUUAAAAA [JL Wide Open 25]", "apparent KD of MS2 coat protein": 18.6}
    ]}
  ]
}
